Experimental data from the supplement of paper PMC7125110.
± gives the standard error. Fewer inactive variants are shown than the library holds.

B1: glmS ribozyme (parent)
chain: AUAAAAGCGCCAGAACUACAGAAAUGUAGUUGACGAGGAGGAGGUUUAUCGAAUUUUCGGCGGAUGCCUCCAAA

Assays:
Settings in all cases: with glucosamine-6-phosphate
glucosamine-6-phosphate [1] = variants of: B1; test: self-cleavage kobs at 640 uM GlcN6P; higher = faster cleavage; RNA array
Summary of the method: (§1)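 Barcoded ribozyme variants, transcribed in situ by E. coli RNA polymerase on sequenced MiSeq chips, were followed via a hybridised Cy3 probe at 37 °C. Glucosamine-6-phosphate ranged from 40 μM to 10 mM in HEPES/KCl/Mg(OAc)2 buffer. kobs came from decay fits to per-tile medians, and kcat and KM from weighted Michaelis–Menten fits.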

glucosamine-6-phosphate [2] = variants of: B1; test: self-cleavage kobs at 2500 uM GlcN6P; higher = faster cleavage; RNA array
Summary of the method: as §1

glucosamine-6-phosphate [3] = variants of: B1; test: self-cleavage kobs at 10000 uM GlcN6P; higher = faster cleavage; RNA array
Summary of the method: as §1

| Variant | self-cleavage kobs at 640 uM GlcN6P (glucosamine-6-phosphate [1]) | self-cleavage kobs at 2500 uM GlcN6P (glucosamine-6-phosphate [2]) | self-cleavage kobs at 10000 uM GlcN6P (glucosamine-6-phosphate [3]) |
| --- | --- | --- | --- |
| AUAAAAGCGCCAGAACUACAGAAAUGUAGUUGACGAGGAGGAGGUUUAUCGAAUUUACGGCGGAUGCCUCUAAA [U57A C71U] | 5.18e-05 ± 2.1e-05 s⁻¹ | 0.000132 ± 3.1e-05 s⁻¹ | 0.000407 ± 0.00015 s⁻¹ |
| AUAAAAGCGCCAGAACUACAGAAAUGUAGUUAACGAGGAGGAGGUUUAGCGAAUUUUGGGCGUAUGCCGCCAAA [G32A U49G C58G G63U U69G] | 0.000279 ± 9.2e-05 s⁻¹ | 0.000153 ± 3.7e-05 s⁻¹ |  |
| AUAAAAGCGCCAGAACUACAGAAAUGUAGUUGACGAGGAGGACGUAUCUCGAAUUUUCGGCGGAUGCCUCCAAA [G43C U46A A48C] | < 1e-05 s⁻¹ | < 1e-05 s⁻¹ | < 1e-05 s⁻¹ |
| AUAAAAGUGCCAGAAUUACAGAAAUGUAGUUGACGAGGAGGAGGUUUAUCGAAUUUUCGGCGGAUGCCUCAAAA [C8U C16U C71A] | < 1e-05 s⁻¹ |  |  |
| AUAAAAGCGCCAGAACUACAGAAAUGUAGUUGACGCGGAGGAGGUUUAUCGAAUUUUCGCCGGAUGCCUCCAAA [A36C G60C] | < 1e-05 s⁻¹ |  |  |
| AUAAAAGCGCUAGAACUACAGAAAUGUAGUUGACGAGGAGGAGGUUAAUCGAGUUAUCGGCGGAUGCCUGCAAA [C11U U47A A53G U56A C70G] | 5.74e-05 ± 1.8e-05 s⁻¹ | 0.000104 ± 3.4e-05 s⁻¹ |  |
| AUAAAAGCGCCCGAACUACAGAAAUGUAGUUGACGAGUAGGAGGUUUAUCGAAUUUUCGGCGGAUGUCUCCAAA [A12C G38U C67U] | < 1e-05 s⁻¹ |  |  |
| AUAAAAGCGCCAGAACUACAGAAAUGUAGUUGACGACGAUGAGGUGUAUCGAAUUUUCGGCGUAUGCCUCCAAA [G37C G40U U46G G63U] | < 1e-05 s⁻¹ |  | < 1e-05 s⁻¹ |
| AUAAAAGCGACAGAACUACAGAAAUGUAGUUGACGAGGAGGAGGUCAAUCGAAUUUUCAGCGGAUGCCUCCAAA [C10A U46C U47A G59A] | < 1e-05 s⁻¹ | < 1e-05 s⁻¹ |  |
| AUAAAAGCCCCAGAACUACAGAAAUGUAGUUGACGAGGAGGAGGUUUAUGGAAUUUUCGCCGGAUGCCUACAAA [G9C C50G G60C C70A] | 0.000151 ± 4.9e-05 s⁻¹ | 0.000123 ± 3.7e-05 s⁻¹ |  |
| AUAAAAGCGUCAGAACUACAGAAAUGUAGUUGACGACGAGGAGGUUUAUCGAAUUUUCGACGGAUGCCUCCAAA [C10U G37C G60A] | < 1e-05 s⁻¹ |  |  |
| AUAAAGGCGCCAGAACUACAGAAAUGUAGUUGACGAGGAGGAGGUUUAUCAAAUUUUCUACGGAUGCCUCCAAA [A6G G51A G59U G60A] | < 1e-05 s⁻¹ | < 1e-05 s⁻¹ |  |
| AUAAAAGCGCCAGAGCUACAGAAAUGUAAUUGACGAGGAGGCGGUUUAUCGAAUUUUCGGCGGAUGCCUCCAAA [A15G G29A A42C] | < 1e-05 s⁻¹ |  |  |
| AUAAAUGCGCCAGAACUACAGAAAUGUAGUUGACGAGGAGGAUGUUUAUCGAAUUUUCGGCGGAUGCCUGCAAA [A6U G43U C70G] | < 1e-05 s⁻¹ |  |  |
| AUAAAAGCGCCAGAACUACAGAAAUGUAGUUGACGAGGGGGAGGUUUAUCGAAUUUUCGGGGGCUGCCUCCAAA [A39G C61G A64C] | < 1e-05 s⁻¹ | < 1e-05 s⁻¹ |  |
| AUAAAAGCGCCAGAACUACAGAAAUGUAGUUGACGAGGAGGAGGUUUAUCUAAUUUUCGGCGGAUGUCCCCAAA [G51U C67U U69C] | 5.75e-05 ± 2.5e-05 s⁻¹ |  |  |
| AUAAAAGCACCAGAACUACAGAAAUGUAGUUGACAAGGAGGAGGUUUCUGGAAUUUUCGGCGGAUGCCUCCAAA [G9A G35A A48C C50G] | < 1e-05 s⁻¹ | < 1e-05 s⁻¹ |  |
| AUAAAAGCGCCAGAACUACAGAAAUGUAGUUGACGAGGAGGAGGAUUAUCCAAUUUUCGACGGAUGCCUCUAAA [U45A G51C G60A C71U] | < 1e-05 s⁻¹ | < 1e-05 s⁻¹ |  |
| AUAAAAGCGCCAGAACUACAGAAAUGUAGUUGACGAGGAGGAGGUUUAUGGAAUUUUCGGUGGAUUCCUCCAAA [C50G C61U G66U] | 7.98e-05 ± 2.8e-05 s⁻¹ | 0.00022 ± 8e-05 s⁻¹ |  |
| AUAAAUGCGACAGUACUACAGAAAUGUAGUUGACGAGGAGGAGGUUUAUCGAAUUUUCGGCGGAUGCCUUCAAA [A6U C10A A14U C70U] | 0.000391 ± 8.2e-05 s⁻¹ | 5.43e-05 ± 2.3e-05 s⁻¹ |  |
| AUAAAAGCGCCAGAACUACAGAAAUGUAGUUGACGAGGAGGAGGUUGAACGUAUUUUCGGCGGAUGCCUCCAAA [U47G U49A A52U] | < 1e-05 s⁻¹ |  |  |
| AUAAAAGCGCCAGAACUACAGAAAUGUAGCUCACGAGGAGGAGGUUUAUCGAAUAUUCGGCGGAUGCCUCCAAA [U30C G32C U55A] | 8.42e-05 ± 1.7e-05 s⁻¹ | 0.000128 ± 3.1e-05 s⁻¹ |  |

| Variant | self-cleavage kobs at 640 uM GlcN6P (glucosamine-6-phosphate [1]) | self-cleavage kobs at 2500 uM GlcN6P (glucosamine-6-phosphate [2]) | self-cleavage kobs at 10000 uM GlcN6P (glucosamine-6-phosphate [3]) |
| --- | --- | --- | --- |
| AUAAAAUCGCCAGAACUACAGAAAUGUAGUUGACGAGGAGGAGGUUUAUCGAAUGUCCGGCGGAUGCCUCCAAA [G7U U55G U57C] | < 1e-05 s⁻¹ | < 1e-05 s⁻¹ | < 1e-05 s⁻¹ |
| AUAAAAGCGCCAGAACUACAGAAAUGUAGUUGACGAGGAGGAGGUUUAUCGAAUUAUGAACGGAUGCCUCCAAA [U56A C58G G59A G60A] | < 1e-05 s⁻¹ | < 1e-05 s⁻¹ |  |
| AUAAAUGCGCCAGAACUACAGAAAUGUAGUUGACGAGGAGGAGGUUUAUAGAAUUUUCGACGGAUGCCUACAAA [A6U C50A G60A C70A] | 0.000136 ± 5e-05 s⁻¹ |  |  |
| AUAAAAGCGCUAGAACUACAGAAAUGUAGUAGACGAGGAGGAGGUUUAUGGAAUUUUCGGCGGAUGCCUCCAAA [C11U U31A C50G] | 8.34e-05 ± 2.1e-05 s⁻¹ | 9.55e-05 ± 3.2e-05 s⁻¹ |  |
| AUAAAAGCGCCAGAACUACAGAAAUGUAGUUAACGAGGAGGAGGUUUCUCGAAUGUUCGGCGGAUACCUCCAAA [G32A A48C U55G G66A] | < 1e-05 s⁻¹ |  |  |
| AUAAAAGCGCCAGAACUACAGAAAUGUAGUUGCCGAGGAGGAGCUUUAUCGAAUUUUUGGAGGAUGCCUCCAAA [A33C G44C C58U C61A] | < 1e-05 s⁻¹ | < 1e-05 s⁻¹ |  |
| AUAAAAGCGCCAGAACUACAGAAAUGUAUUGGACGAGGAGGAGGUUGAUCGAAUUUUCGGCGGAUGCCUCAAAA [G29U U31G U47G C71A] | 9.8e-05 ± 3.6e-05 s⁻¹ |  |  |
| AUAAAAGCGUCAGAACUACAGAAAUGUAGUCGACGAGGAGGAGGUUUACCGAAUUUUCGGCGGAUGCCUCCAAA [C10U U31C U49C] | < 1e-05 s⁻¹ |  |  |
| AUAAAAGUGCCAGAACUACAGAAAUGUAGUUGACGAGGAGGAGGUUUAUAGAAUUUUCGGCGGAUGCCUCCAAA [C8U C50A] | < 1e-05 s⁻¹ | < 1e-05 s⁻¹ | < 1e-05 s⁻¹ |
| AUAAAAGGGCCAGAACUACAGAAAUGUAGUUUACGAGGAGGAGGUUUAUCGAAUUUUCGGCGGAUGCCUCCAAA [C8G G32U] | < 1e-05 s⁻¹ | < 1e-05 s⁻¹ |  |
| AUAAAAGCGCCAGAACUACAGAAAUGUAGUUGACGAUGAGGAGGUUUAUCGAAUUUUCGGCUGAUGCCUCCAAA [G37U G62U] | < 1e-05 s⁻¹ |  |  |
| AUAAAGGCGCCAGAACUACAGAAAUGUAGUUGACGCGCAGGAGGUUUAUCGAAUUUUCGGCGGAUGCCUCCAAA [A6G A36C G38C] | < 1e-05 s⁻¹ |  | < 1e-05 s⁻¹ |
| AUAAAAGCGCCCGAACUACAGAAAUGUAGUUGACGAGGAGGAAGUUUAUCGAAUUUUCGGUGGAUGCCUCCAAA [A12C G43A C61U] | < 1e-05 s⁻¹ | < 1e-05 s⁻¹ |  |
| AUAAAAGCGCCAGAACUACAGAAAUGUAGUUGUUGCGGAGGAGGUUUAUCGAAUUUUCGGCGGAUGCCGCCAAA [A33U C34U A36C U69G] | 0.000124 ± 6e-05 s⁻¹ |  |  |
| AUAAAAGCGCCAGAACUACAGAAAUGUAGUUGCCGAGGAGGAGGUUUAUCGAUUUUUCAGCGGAUGCCGCCAAA [A33C A53U G59A U69G] | 0.000208 ± 8.8e-05 s⁻¹ |  |  |
| AUAAAAGCGCCAGAACUACAGAAAUGUAGUUCACUCGGAGGAGGUUUAUCGAAUUUUCGGCGGAUGCAUCCAAA [G32C G35U A36C C68A] | < 1e-05 s⁻¹ | < 1e-05 s⁻¹ |  |
| AUAAAAGCGCCAGAACUACAGAAAUGUAGGUGACGACGAGAAGGUUUUUCGAUUUUUCGGCGGAUGCGUUCAAA [U30G G37C G41A A48U A53U C68G C70U] | < 1e-05 s⁻¹ |  |  |
| AUAAAAGCAACAGAACUACAGAAAUGUAGCUGACGAGGAGGAGGUUUAUCGAAUUUUCGGCGGAUGCCUCCAAA [G9A C10A U30C] | < 1e-05 s⁻¹ | < 1e-05 s⁻¹ |  |
| AUAAAAGCGCCAGAACUACAGAAAUGUAUUUGACGAUGAGGAGGUUUAUCCAAUUUUCGGCGGAUGCUUCGAAA [G29U G37U G51C C68U C71G] | 4.89e-05 ± 1.7e-05 s⁻¹ |  |  |
| AUAAAAGCCCCAGAACUACAGAAAUGUAGUUGACGAGGAGGAGGUUUAUCGAAUUUUCGGCGGAUGGUUCCAAA [G9C C67G C68U] | < 1e-05 s⁻¹ | < 1e-05 s⁻¹ |  |
| AUAAAAGCGCCAGAACUACAGAAAUGUCGUUGUCGAGGAGGAGGUUUAUCGAAUUUUCUGUGGAUGCCUCCAAA [A28C A33U G59U C61U] | < 1e-05 s⁻¹ |  |  |
| AUAAAAGGGCCAGAACUACAGAAAUGUAGUUGACGAGGAGGAAGUGUAUCGAAUUUUCGGCGGAUGCCUCCAAA [C8G G43A U46G] | < 1e-05 s⁻¹ |  | < 1e-05 s⁻¹ |
